Test results reported in patent publication US20220089722A1 (published 2022).

Tests used:
[1] = molecular target: T1, hEGFR-6-his (SinoBiological) (human, UniProt P00533 25-645); experiment: ELISA
[2] = molecular target: T1, hEGFR-6-his (SinoBiological); experiment: ELISA; printed value although curve is flat

Row | Binder | Kd [1] [nM] | Kd [2] [nM]
1 | IgFD-7(anti-CD19/CD3) (bispecific antibody) chain 1: EVQLVESGGGLVQPGGSLRLSCAASGFTFNTYAMNWVRQAPGKGLEWVARIRSKYNNYATYYADSVKDRFTISRDDSKNTLYLQMNSLRAEDTAVYYCVRHGNFGNSYVSWFAYWGQGTLVTVSSASTKGPSVFPLAPSSKSTSGGTAALGCLVKDYFPEPVTVSWNSGALTSGVHTFPAVLQSSGLYSLSSVVTVPSSSLGTQTYICNVNHKPSNTKVDKKVEPKSCDKTHTCPPCPAPPVAGPSVFLFPPKPKDTLMISRTPEVTCVVVDVSHEDPEVKFNWYVDGVEVHNAKTKPREEQYNSTYRVVSVLTVLHQDWLNGKEYKCKVSNKGLPSSIEKTISKAKGQPREPQVYTLPPSRDELTKNQVSLTCLVKGFYPSDIAVEWESNGQPENNYKTTPPVLDSDGSFFLYSKLTVDKSRWQQGNVFSCSVMHEALHNHYTQKSLSLSPGK chain 2: QAVVTQEPSLTVSPGGTVTLTCRSSTGAVTTSNYANWVQQKPDHLFRGLIGGTNKRAPGTPARFSGSLLGDKAALTISGAQPEDEAEYYCALWYSNLWVFGGGTKLTVLKRTVAAPSVFIFPPSDEQLKSGTASVVCLLNNFYPREAKVQWKVDNALQSGNSQESVTEQDSKDSTYSLSSTLTLSKADYEKHKVYACEVTHQGLSSPVTKSFNRGECDKTHTCPPCPAPPVAGPSVFLFPPKPKDTLMISRTPEVTCVVVDVSHEDPEVKFNWYVDGVEVHNAKTKPREEQYNSTYRVVSVLTVLHQDWLNGKEYKCKVSNKGLPSSIEKTISKAKGQPREPQVYTLPPSRDELTKNQVSLTCLVKGFYPSDIAVEWESNGQPENNYKTTPPVLDSDGSFFLYSKLTVDKSRWQQGNVFSCSVMHEALHNHYTQKSLSLSPGKSGGGGSGGGGSGGGGSDIQMTQTTSSLSASLGDRVTISCRASQDISKYLNWYQQKPDGTVKLLIYHTSRLHSGVPSRFSGSGSGTDYSLTISNLEQEDIATYFCQQGNTLPYTFGGGTKLEITGGGGSGGGGSGGGGSEVKLQESGPGLVAPSQSLSVTCTVSGVSLPDYGVSWIRQPPRKGLEWLGVIWGSETTYYNSALKSRLTIIKDNSKSQVFLKMNSLQTDDTAIYYCAKHYYYGGSYAMDYWGQGTSVTVSS |  | 0.161
2 | IgFD-31(anti-CD3/EGFR) (bispecific antibody) chain 1: EVQLVESGGGLVQPGGSLRLSCAASGFTFNTYAMNWVRQAPGKGLEWVARIRSKYNNYATYYADSVKDRFTISRDDSKNTLYLQMNSLRAEDTAVYYCVRHGNFGNSYVSWFAYWGQGTLVTVSSASTKGPSVFPLAPSSKSTSGGTAALGCLVKDYFPEPVTVSWNSGALTSGVHTFPAVLQSSGLYSLSSVVTVPSSSLGTQTYICNVNHKPSNTKVDKKVEPKSCGGSGAKLAALKAKLAALKGGGGSDKTHTCPPCPAPPVAGPSVFLFPPKPKDTLMISRTPEVTCVVVDVSHEDPEVKFNWYVDGVEVHNAKTKPREEQYNSTYRVVSVLTVLHQDWLNGKEYKCKVSNKGLPSSIEKTISKAKGQPREPQVYTLPPSRDELTKNQVSLTCLVKGFYPSDIAVEWESNGQPENNYKTTPPVLDSDGSFFLYSKLTVDKSRWQQGNVFSCSVMHEALHNHYTQKSLSLSPGK chain 2: QAVVTQEPSLTVSPGGTVTLTCRSSTGAVTTSNYANWVQQKPDHLFRGLIGGTNKRAPGTPARFSGSLLGDKAALTISGAQPEDEAEYYCALWYSNLWVFGGGTKLTVLKRTVAAPSVFIFPPSDEQLKSGTASVVCLLNNFYPREAKVQWKVDNALQSGNSQESVTEQDSKDSTYSLSSTLTLSKADYEKHKVYACEVTHQGLSSPVTKSFNRGECGGGGSELAALEAELAALEAGGSGDKTHTCPPCPAPPVAGPSVFLFPPKPKDTLMISRTPEVTCVVVDVSHEDPEVKFNWYVDGVEVHNAKTKPREEQYNSTYRVVSVLTVLHQDWLNGKEYKCKVSNKGLPSSIEKTISKAKGQPREPQVYTLPPSRDELTKNQVSLTCLVKGFYPSDIAVEWESNGQPENNYKTTPPVLDSDGSFFLYSKLTVDKSRWQQGNVFSCSVMHEALHNHYTQKSLSLSPGKGGSGGSGGGGSGGGGSDIQMTQSPSSLSASVGDRVTITCQASQDISNYLNWYQQKPGKAPKLLIYDASNLETGVPSRFSGSGSGTDFTFTISSLQPEDIATYFCQHFDHLPLAFGGGTKVEIKGGGGSGGGGSGGGGSQVQLQESGPGLVKPSETLSLTCTVSGGSVSSGDYYWTWIRQSPGKGLEWIGHIYYSGNTNYNPSLKSRLTISIDTSKTQFSLKLSSVTAADTAIYYCVRDRVTGAFDIWGQGTMVTVSS | 0.161 | 

Continued by falling Kd [1], values first:

Row | Kd [1] [nM] | Kd [2] [nM] | Binder
3 | 0.15 |  | IgFD-25(anti-CD3/EGFR) (bispecific antibody) chain 1: EVQLVESGGGLVQPGGSLRLSCAASGFTFNTYAMNWVRQAPGKGLEWVARIRSKYNNYATYYADSVKDRFTISRDDSKNTLYLQMNSLRAEDTAVYYCVRHGNFGNSYVSWFAYWGQGTLVTVSSASTKGPSVFPLAPSSKSTSGGTAALGCLVKDYFPEPVTVSWNSGALTSGVHTFPAVLQSSGLYSLSSVVTVPSSSLGTQTYICNVNHKPSNTKVDKKVEPKSCDKTHTCPPCPAPPVAGPSVFLFPPKPKDTLMISRTPEVTCVVVDVSHEDPEVKFNWYVDGVEVHNAKTKPREEQYNSTYRVVSVLTVLHQDWLNGKEYKCKVSNKGLPSSIEKTISKAKGQPREPQVYTLPPCRDELTKNQVSLWCLVKGFYPSDIAVEWESNGQPENNYKTTPPVLDSDGSFFLYSKLTVDKSRWQQGNVFSCSVMHEALHNHYTQKSLSLSPGK chain 2: QAVVTQEPSLTVSPGGTVTLTCRSSTGAVTTSNYANWVQQKPDHLFRGLIGGTNKRAPGTPARFSGSLLGDKAALTISGAQPEDEAEYYCALWYSNLWVFGGGTKLTVLKRTVAAPSVFIFPPSDEQLKSGTASVVCLLNNFYPREAKVQWKVDNALQSGNSQESVTEQDSKDSTYSLSSTLTLSKADYEKHKVYACEVTHQGLSSPVTKSFNRGECDKTHTCPPCPAPPVAGPSVFLFPPKPKDTLMISRTPEVTCVVVDVSHEDPEVKFNWYVDGVEVHNAKTKPREEQYNSTYRVVSVLTVLHQDWLNGKEYKCKVSNKGLPSSIEKTISKAKGQPREPQVCTLPPSRDELTKNQVSLSCAVKGFYPSDIAVEWESNGQPENNYKTTPPVLDSDGSFFLVSKLTVDKSRWQQGNVFSCSVMHEALHNHYTQKSLSLSPGKGGSGGSGGGGSGGGGSDIQMTQSPSSLSASVGDRVTITCQASQDISNYLNWYQQKPGKAPKLLIYDASNLETGVPSRFSGSGSGTDFTFTISSLQPEDIATYFCQHFDHLPLAFGGGTKVEIKGGGGSGGGGSGGGGSQVQLQESGPGLVKPSETLSLTCTVSGGSVSSGDYYWTWIRQSPGKGLEWIGHIYYSGNTNYNPSLKSRLTISIDTSKTQFSLKLSSVTAADTAIYYCVRDRVTGAFDIWGQGTMVTVSS
4 | 0.139 |  | IgFD-26(anti-CD3/EGFR) (bispecific antibody) chain 1: not shown chain 2: QAVVTQEPSLTVSPGGTVTLTCRSSTGAVTTSNYANWVQQKPDHLFRGLIGGTNKRAPGTPARFSGSLLGDKAALTISGAQPEDEAEYYCALWYSNLWVFGGGTKLTVLKRTVAAPSVFIFPPSDEQLKSGTASVVCLLNNFYPREAKVQWKVDNALQSGNSQESVTEQDSKDSTYSLSSTLTLSKADYEKHKVYACEVTHQGLSSPVTKSFNRGECDKTHTCPPCPAPELLGGPSVFLFPPKPKDTLMISRTPEVTCVVVDVSHEDPEVKFNWYVDGVEVHNAKTKPREEQYASTYRVVSVLTVLHQDWLNGKEYKCKVSNKALPAPIEKTISKAKGQPREPQVCTLPPSREEMTKNQVSLSCAVKGFYPSDIAVEWESNGQPENNYKTTPPVLDSDGSFFLVSKLTVDKSRWQQGNVFSCSVMHEALHNHYTQKSLSLSPGKGGSGGSGGGGSGGGGSDIQMTQSPSSLSASVGDRVTITCQASQDISNYLNWYQQKPGKAPKLLIYDASNLETGVPSRFSGSGSGTDFTFTISSLQPEDIATYFCQHFDHLPLAFGGGTKVEIKGGGGSGGGGSGGGGSQVQLQESGPGLVKPSETLSLTCTVSGGSVSSGDYYWTWIRQSPGKGLEWIGHIYYSGNTNYNPSLKSRLTISIDTSKTQFSLKLSSVTAADTAIYYCVRDRVTGAFDIWGQGTMVTVSS
